# Earlier results as cited in article PMC5116920.
# pKd: −log10 of the molar value.
# Molecular target: Histone H4 (UniProt P62805)
substance,measurement,value
TAF1 BD (from UniProt P21675),pKd,4.00
